Results as given in the supplement of paper PMC7125110.
± gives the standard error. This sample holds only a part of the variants without activity.

B1: glmS ribozyme (parent)
chain: AUAAAAGCGCCAGAACUACAGAAAUGUAGUUGACGAGGAGGAGGUUUAUCGAAUUUUCGGCGGAUGCCUCCAAA

What was measured:
Conditions in all cases: with glucosamine-6-phosphate
glucosamine-6-phosphate [1] = variants of: B1; assay: self-cleavage kobs at 640 uM GlcN6P; higher = faster cleavage; RNA array
Procedure, shortened: (§1)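 Glucosamine-6-phosphate in HEPES/KCl/Mg(OAc)2 buffer, at 40 μM to 10 mM, was flowed over barcoded ribozyme variants transcribed in situ by E. coli RNA polymerase on sequenced MiSeq chips. Tracking was through a hybridised Cy3 probe at 37 °C. kobs, kcat and KM came from exponential decay fits and weighted Michaelis–Menten fits of normalised per-tile medians.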

glucosamine-6-phosphate [2] = variants of: B1; assay: self-cleavage kobs at 2500 uM GlcN6P; higher = faster cleavage; RNA array
Procedure, shortened: as §1

glucosamine-6-phosphate [3] = variants of: B1; assay: self-cleavage kobs at 160 uM GlcN6P; higher = faster cleavage; RNA array
Procedure, shortened: as §1

glucosamine-6-phosphate [4] = variants of: B1; assay: self-cleavage kobs at 10000 uM GlcN6P; higher = faster cleavage; RNA array
Procedure, shortened: as §1

Variant	self-cleavage kobs at 640 uM GlcN6P (glucosamine-6-phosphate [1]) [s⁻¹]	self-cleavage kobs at 2500 uM GlcN6P (glucosamine-6-phosphate [2]) [s⁻¹]	self-cleavage kobs at 160 uM GlcN6P (glucosamine-6-phosphate [3]) [s⁻¹]	self-cleavage kobs at 10000 uM GlcN6P (glucosamine-6-phosphate [4]) [s⁻¹]
G7U A12G C16U	< 1e-05	< 1e-05		
C34A G37A C58U			< 1e-05	
A12G A33G G40C A52G U54A C58A	< 1e-05			
U30G G40U A42C C58A	< 1e-05	< 1e-05	< 1e-05	
U30A A53U C70U	0.000821 ± 0.0002		0.000167 ± 4.8e-05	
U31C A53G U65G	0.000195 ± 3.6e-05	0.000454 ± 7.6e-05		0.000519 ± 9.8e-05
G9U U49A C71A	< 1e-05			
G43C U45G G63C U69G	< 1e-05			
C10A G38A G51U C70G	5.43e-05 ± 1.7e-05			
C34U G51C	< 1e-05	< 1e-05	< 1e-05	< 1e-05
C10A A12G A15G C61A			< 1e-05	
U54A U56C G66A C70U	0.000185 ± 4.1e-05	0.000395 ± 9.4e-05	7.54e-05 ± 1.5e-05	
C10U A12U G40U A48G G60A			7.46e-05 ± 2.7e-05	
C34A G63A	< 1e-05	< 1e-05	< 1e-05	
C8G U31C G38A	< 1e-05			< 1e-05
G35A U56G A64G		< 1e-05	< 1e-05	< 1e-05
C8U G32A C34G	< 1e-05	< 1e-05		
A15G G35C A53U	< 1e-05	< 1e-05		< 1e-05
C8G G13U G43A U46G C50U	< 1e-05		< 1e-05	
C10G G32A A33G C61A G63A			0.00144 ± 0.00069	
A36U C50U		< 1e-05	< 1e-05	
C8G C16A G35U		< 1e-05	< 1e-05	
C11A A12C A42C	< 1e-05	< 1e-05		

Variant	self-cleavage kobs at 640 uM GlcN6P (glucosamine-6-phosphate [1]) [s⁻¹]	self-cleavage kobs at 2500 uM GlcN6P (glucosamine-6-phosphate [2]) [s⁻¹]	self-cleavage kobs at 160 uM GlcN6P (glucosamine-6-phosphate [3]) [s⁻¹]	self-cleavage kobs at 10000 uM GlcN6P (glucosamine-6-phosphate [4]) [s⁻¹]
G32U C50G			5.71e-05 ± 2e-05	
G44U C50A C68G		< 1e-05	< 1e-05	
C11A G38U G40U			< 1e-05	
C34U A36G G62A U69G	0.00111 ± 0.00031	0.000939 ± 0.00035		
C11U A42U	< 1e-05	< 1e-05	< 1e-05	
A15U C16A U47A C61G C68G	8.84e-05 ± 3.3e-05			
G37A G43U U47C A52C A64U	< 1e-05	< 1e-05	< 1e-05	
G7C C58A	< 1e-05	< 1e-05	< 1e-05	< 1e-05
U47A C50G C67U C71A	0.000221 ± 0.00011			0.000134 ± 2.8e-05
A14G U57A	0.000139 ± 2.9e-05	0.000418 ± 4.7e-05	4.7e-05 ± 1.1e-05	
U30G G35U G44U U46G U65C	< 1e-05	< 1e-05	< 1e-05	
G7U G37C G40A	< 1e-05		< 1e-05	
A15G A33U G40U C67G		< 1e-05	< 1e-05	
G40A G51U	< 1e-05		< 1e-05	
G29C U69G	9.83e-05 ± 1.7e-05	4.13e-05 ± 1.1e-05	3.65e-05 ± 9.9e-06	
C11A U30G C34U C50G	0.000134 ± 2.8e-05			
C11U U46A U54G		4.93e-05 ± 1.7e-05	< 1e-05	
C10G U57C	< 1e-05	< 1e-05	< 1e-05	< 1e-05
A15G G51U G59A		< 1e-05	< 1e-05	< 1e-05
A12C A39U U46A C50G	< 1e-05	< 1e-05	< 1e-05	
G41A C67U	< 1e-05	< 1e-05	< 1e-05	
G32C G44C C58U G59A U65A C71U			< 1e-05	
C10U G44A U57C G62A	< 1e-05		< 1e-05	

Variant	self-cleavage kobs at 640 uM GlcN6P (glucosamine-6-phosphate [1]) [s⁻¹]	self-cleavage kobs at 2500 uM GlcN6P (glucosamine-6-phosphate [2]) [s⁻¹]	self-cleavage kobs at 160 uM GlcN6P (glucosamine-6-phosphate [3]) [s⁻¹]	self-cleavage kobs at 10000 uM GlcN6P (glucosamine-6-phosphate [4]) [s⁻¹]
G13C U31G G43U		< 1e-05	< 1e-05	
C50G U56A C58G	0.00041 ± 0.00014	6.12e-05 ± 2.4e-05	9.66e-05 ± 4.4e-05	
A42U U56G C61U			< 1e-05	
A12C A15G C50G U56G C67G	0.000141 ± 3.7e-05	0.000133 ± 3.1e-05	0.000121 ± 2.8e-05	4.37e-05 ± 1.2e-05
A39U G59U	< 1e-05		< 1e-05	3.61e-05 ± 1.4e-05
C10U A33U A36U G43U A53G C71U	< 1e-05	< 1e-05		
G40A C68G	< 1e-05	< 1e-05	< 1e-05	< 1e-05
G43A A48C	< 1e-05		< 1e-05	< 1e-05
U30A G32A G35C U45C	< 1e-05	< 1e-05		
A14C G40C G41C G44C	< 1e-05	< 1e-05		
C34U U49G		< 1e-05	< 1e-05	< 1e-05
C10A G13A C50A C58U C71G	0.000823 ± 0.00036	7.64e-05 ± 3.6e-05		
U31G C58G C70G	0.000104 ± 3.4e-05			
C16U C67G C70U	5.74e-05 ± 2e-05	7.27e-05 ± 2e-05		
A33C U46C U56C G59C	< 1e-05	< 1e-05	< 1e-05	
C34U A36U G41C A53G	< 1e-05			
G13C G59U C67A C71U	5.98e-05 ± 2.4e-05			
G38A G41U U56G	< 1e-05	< 1e-05	< 1e-05	
G7A G37A A39G G40U U49A G59A		< 1e-05	< 1e-05	
C11G C67U	< 1e-05	< 1e-05	< 1e-05	
A15U A42C	< 1e-05	< 1e-05	< 1e-05	< 1e-05
C16G G43U G66A	< 1e-05			
A14C G51A C58A C68G	8.48e-05 ± 2.9e-05	8.83e-05 ± 2.5e-05	6.87e-05 ± 1.6e-05	

Variant	self-cleavage kobs at 640 uM GlcN6P (glucosamine-6-phosphate [1]) [s⁻¹]	self-cleavage kobs at 2500 uM GlcN6P (glucosamine-6-phosphate [2]) [s⁻¹]	self-cleavage kobs at 160 uM GlcN6P (glucosamine-6-phosphate [3]) [s⁻¹]	self-cleavage kobs at 10000 uM GlcN6P (glucosamine-6-phosphate [4]) [s⁻¹]
G13A C34U	< 1e-05	< 1e-05	< 1e-05	
U30A G41U A48U	< 1e-05	< 1e-05		
U30A A39C U47C	4.7e-05 ± 1.3e-05			
G38U G59A			< 1e-05	
U31G A52C	< 1e-05		< 1e-05	
A39C C50A A52U	< 1e-05		< 1e-05	
A36G G38U C61U G66U			< 1e-05	
A12U U45G U46G		0.00499 ± 0.0017	0.000419 ± 0.00015	
G35A G37A U57A C68A	0.000784 ± 0.00036			
G35A G43C A53U U54A	< 1e-05	< 1e-05		
A39G A48U U54G	8.65e-05 ± 1.9e-05	0.000287 ± 7.3e-05		
A39G G51A	< 1e-05	< 1e-05		
A15U A36C G41U C71G	< 1e-05		< 1e-05	
C11A A48C	< 1e-05	< 1e-05	< 1e-05	
G9U C58U	< 1e-05	< 1e-05	< 1e-05	
G38A G60A	< 1e-05	< 1e-05		
A12U U69C	0.00151 ± 0.00069	0.00211 ± 0.00066	0.000492 ± 0.00017	
G7U C10G G13U A15U A39G	< 1e-05	< 1e-05	< 1e-05	
A6C G35C G44U	< 1e-05	< 1e-05	< 1e-05	
A14U U30A C50G C58G	9.41e-05 ± 1.7e-05	0.000131 ± 2.3e-05	0.000116 ± 2.1e-05	
G35C G40C U47A G62U	< 1e-05		< 1e-05	
A15C U49G G62U A64C C70U	< 1e-05			
U49A G63U	< 1e-05			

Variant	self-cleavage kobs at 640 uM GlcN6P (glucosamine-6-phosphate [1]) [s⁻¹]	self-cleavage kobs at 2500 uM GlcN6P (glucosamine-6-phosphate [2]) [s⁻¹]	self-cleavage kobs at 160 uM GlcN6P (glucosamine-6-phosphate [3]) [s⁻¹]	self-cleavage kobs at 10000 uM GlcN6P (glucosamine-6-phosphate [4]) [s⁻¹]
G35A G59A G62U	< 1e-05			
C16A A39U C58A U65A	< 1e-05	< 1e-05	< 1e-05	
C50A G60C C68U	4.56e-05 ± 2.1e-05			
G9A C11G A12G A15U C16A U30C G32A A48G G59U G60U		< 1e-05	< 1e-05	
U45A C67G C68A	0.000177 ± 4.1e-05	0.000173 ± 4.7e-05	7.91e-05 ± 1.9e-05	
C10G G66U C68G C71A	8.79e-05 ± 3.1e-05			
A15C A33C U55C	< 1e-05	< 1e-05	< 1e-05	
C50A G63A			< 1e-05	< 1e-05
C50U U56A			< 1e-05	
A14G A33U G35C	< 1e-05			
G38A A42U A52U C68A	< 1e-05	< 1e-05	< 1e-05	
G7U A15G G32A	< 1e-05		< 1e-05	
G32C G60U	< 1e-05	< 1e-05	< 1e-05	< 1e-05
A15G A33G	< 1e-05		< 1e-05	< 1e-05
A15C C16G C67G			< 1e-05	
C34A G35A U65G	< 1e-05			
A6C G38U G62C C70U	< 1e-05			
C16G A48C G62U	< 1e-05		< 1e-05	
A15G U30C C34G A36C G41U U49A C70A	< 1e-05	< 1e-05		
